Assay results taken from paper PMC2139813 (The Journal of Cell Biology, 1997).

Target: human placental moesin (human, UniProt P26038 1-577)
Test: far-Western, overlay or dot blot

binding result: binds
B1: human moesin N-ERMAD (amino acids 1–296) (domain or fragment, UniProt P26038 1-296, looked up)
chain: MPKTISVRVTTMDAELEFAIQPNTTGKQLFDQVVKTIGLREVWFFGLQYQDTKGFSTWLKLNKKVTAQDVRKESPLLFKFRAKFYPEDVSEELIQDITQRLFFLQVKEGILNDDIYCPPETAVLLASYAVQSKYGDFNKEVHKSGYLAGDKLLPQRVLEQHKLNKDQWEERIQVWHEEHRGMLREDAVLEYLKIAQDLEMYGVNYFSIKNKKGSELWLGVDALGLNIYEQNDRLTPKIGFPWSEIRNISFNDKKFVIKPIDKKAPDFVFYAPRLRINKRILALCMGNHELYMRRRK
modifications: biotin (only where used as probe in blot overlays; site not stated)
